One block for each binder: values may come before it.
Columns and labels:
[1] = target: T1, Hxt1-F[3] (S. cerevisiae, UniProt P32465 1-570; P00375 107-187); test: cell-based or functional assay
T1 sequence (looked up): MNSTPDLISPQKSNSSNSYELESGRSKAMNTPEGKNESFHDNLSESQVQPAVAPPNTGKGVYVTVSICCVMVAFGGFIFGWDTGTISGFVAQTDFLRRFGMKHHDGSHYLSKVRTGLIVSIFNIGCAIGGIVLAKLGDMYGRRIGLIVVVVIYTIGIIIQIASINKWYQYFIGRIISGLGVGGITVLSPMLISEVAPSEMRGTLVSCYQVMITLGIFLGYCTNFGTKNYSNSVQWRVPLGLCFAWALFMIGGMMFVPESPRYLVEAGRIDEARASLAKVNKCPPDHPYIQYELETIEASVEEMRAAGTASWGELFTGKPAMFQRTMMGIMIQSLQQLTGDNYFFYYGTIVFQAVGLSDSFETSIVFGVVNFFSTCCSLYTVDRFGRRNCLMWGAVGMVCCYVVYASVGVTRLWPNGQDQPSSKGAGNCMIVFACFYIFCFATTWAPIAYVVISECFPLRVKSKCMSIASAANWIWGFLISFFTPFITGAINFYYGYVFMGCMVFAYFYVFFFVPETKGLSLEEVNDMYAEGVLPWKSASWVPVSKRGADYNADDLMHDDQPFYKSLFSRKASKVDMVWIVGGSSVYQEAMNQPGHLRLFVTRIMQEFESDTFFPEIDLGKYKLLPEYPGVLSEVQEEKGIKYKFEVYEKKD

[2] = target: Pdr5-F[3] (S. cerevisiae, UniProt P33302 1-1511; P00375 107-187); test: cell-based or functional assay
[3] = target: T2, Fpr1-F[3] (S. cerevisiae, UniProt P20081 2-114; P00375 107-187); test: cell-based or functional assay
T2 sequence (looked up): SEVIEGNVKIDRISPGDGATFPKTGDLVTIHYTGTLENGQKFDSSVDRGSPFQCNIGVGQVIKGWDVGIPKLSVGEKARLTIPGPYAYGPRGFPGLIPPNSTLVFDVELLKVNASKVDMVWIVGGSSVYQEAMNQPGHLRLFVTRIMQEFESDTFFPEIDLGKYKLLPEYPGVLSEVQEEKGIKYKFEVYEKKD

[4] = target: T3, Pdr5 split Renilla luciferase (Rluc) PCA fusion (S. cerevisiae, UniProt P33302 1-1511); test: split Renilla luciferase PCA, luminescence of yeast cells, 200 µM copper sulfate
T3 construct: whole, on cells; DHFR fragment of the Pdr5-F[3] strain replaced by an Rluc PCA fragment by homologous recombination; also called Pdr5 (Rluc PCA strain); not shown: linker of the pAG25/pAG32-linker-Rluc cassettes; Renilla luciferase PCA fragment; DHFR F[3] strains are said to receive Rluc F[1], but the next sentences call preys Rluc
T3 sequence (P33302 whole entry, the tested form may be a part): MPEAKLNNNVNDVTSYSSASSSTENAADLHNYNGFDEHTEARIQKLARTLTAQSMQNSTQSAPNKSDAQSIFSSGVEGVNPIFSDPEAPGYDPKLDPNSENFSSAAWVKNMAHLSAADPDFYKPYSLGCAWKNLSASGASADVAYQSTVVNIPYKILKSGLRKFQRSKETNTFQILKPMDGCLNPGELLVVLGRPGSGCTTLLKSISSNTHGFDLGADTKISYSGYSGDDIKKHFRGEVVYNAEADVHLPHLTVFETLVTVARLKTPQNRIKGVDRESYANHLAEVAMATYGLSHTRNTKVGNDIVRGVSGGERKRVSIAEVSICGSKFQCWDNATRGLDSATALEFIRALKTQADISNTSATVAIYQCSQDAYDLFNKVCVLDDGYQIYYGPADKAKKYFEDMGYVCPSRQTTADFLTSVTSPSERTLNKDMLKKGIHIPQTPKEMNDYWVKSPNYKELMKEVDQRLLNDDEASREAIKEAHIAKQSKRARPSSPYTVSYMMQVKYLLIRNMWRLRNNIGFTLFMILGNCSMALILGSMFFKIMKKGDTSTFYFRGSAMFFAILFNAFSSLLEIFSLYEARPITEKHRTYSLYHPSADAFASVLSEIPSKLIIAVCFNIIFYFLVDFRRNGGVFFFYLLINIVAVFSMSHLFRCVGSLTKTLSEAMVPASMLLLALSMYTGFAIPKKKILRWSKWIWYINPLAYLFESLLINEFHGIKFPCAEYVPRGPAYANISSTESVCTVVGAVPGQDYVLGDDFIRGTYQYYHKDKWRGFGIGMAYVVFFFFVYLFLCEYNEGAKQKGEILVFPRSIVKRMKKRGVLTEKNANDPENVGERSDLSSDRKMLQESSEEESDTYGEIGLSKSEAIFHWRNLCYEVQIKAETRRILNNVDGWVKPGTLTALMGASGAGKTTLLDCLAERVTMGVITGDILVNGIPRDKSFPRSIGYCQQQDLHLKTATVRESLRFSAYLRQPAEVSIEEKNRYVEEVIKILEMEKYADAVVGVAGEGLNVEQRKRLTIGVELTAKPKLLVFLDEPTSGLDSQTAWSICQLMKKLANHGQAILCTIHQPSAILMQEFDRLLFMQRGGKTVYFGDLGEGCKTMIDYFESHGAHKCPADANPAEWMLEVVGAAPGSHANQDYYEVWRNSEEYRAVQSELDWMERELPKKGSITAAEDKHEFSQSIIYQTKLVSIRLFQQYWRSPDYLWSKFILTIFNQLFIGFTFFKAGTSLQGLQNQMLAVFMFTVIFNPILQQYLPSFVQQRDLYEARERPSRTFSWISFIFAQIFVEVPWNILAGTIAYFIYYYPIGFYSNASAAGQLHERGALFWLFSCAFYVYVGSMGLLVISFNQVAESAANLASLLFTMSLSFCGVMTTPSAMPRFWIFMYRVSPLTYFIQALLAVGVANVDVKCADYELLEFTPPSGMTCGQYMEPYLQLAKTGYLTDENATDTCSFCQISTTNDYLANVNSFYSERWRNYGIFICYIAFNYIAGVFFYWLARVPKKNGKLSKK
Procedure: Triplicate fresh colonies of each diploid Rluc PCA strain were grown in 5 ml synthetic dextrose media supplemented with standard concentrations of histidine, leucine, and uracil at 30° C. for 24 h, then diluted 1:32 into 5 ml of the same media supplemented DMSO (0.5%), FK506 (50 μM), hydrogen peroxide (0.001%), sodium chloride (175 mM), or copper sulfate (200 μM). Cells were grown for 24 h at 30° C., diluted 1:32 again into fresh media containing the same supplement, and grown for another 6 h. Cells were counted, and 1-2×10⁷ cells were pelleted, and resuspended in 180 ul phosphate-buffered saline (PBS), pH 7.2 containing 1 mM EDTA. Cells were transferred to white 96-well flat bottom plates (Greiner bio-one #655075). The luciferase substrate, benzyl coelenterazine (Nanolight #301), was diluted 1:10 from the stock (2 mM in absolute ethanol) using 1×PBS, and 20 ul of diluted substrate was added to each sample (to a final concentration of […]). A Centro LB 960 microplate luminometer (Berthold Technologies) was used to measure the Rluc PCA signal, which was integrated for 10 seconds. Changes in luminescence in response to a specific condition were calculated by the following equation: luminescencecondition/luminescenceDMSO.

[5] = target: Snq2-F[3] (S. cerevisiae, UniProt P32568 2-1501; P00375 107-187); test: cell-based or functional assay

- fitness (PPiSeq, MTX(+), benign environment) [1]: 0.1
B1: Shr3-F[1,2] (other, UniProt Q02774 1-210, looked up, not shown: small tags and cut ends)
chain: MFSYSDFCSIGTAMILSATTFLMGVFFSNMPYDYHLLFNPNSTQEHFDLALRHYQILHETPLPVIVTLCVVAGIGLVGGTIKVFKPNPELQMFEYCSLGLYVLAICVFLTNVKTGIDCSVSHNWGEVTENQGLAVIASSNIILLVMFAGVIILQIGLWYSNWDLQKRLKEFYAQEEREAANAGKKTEKVDNAKKNDNKSKGAQKRKNAKKVRPLNCIVAVSQNMGIGKNGDLPWPPLRNEFKYFQRMTTTSSVEGKQNLVIMGRKTWFSIPEKNRPLKDRINIVLSRELKEPPRGAHFLAKSLDDALRLIEQPEL

- fitness (PPiSeq, MTX(+), benign environment) [2]: 0.06
B2: Fmp45-F[1,2] (other, UniProt Q07651 1-309, looked up, not shown: small tags and cut ends)
chain: MIFKRFVNLLVFLFLLGAGLLTFFLILSGGRESGTLKNFYWLQADTNGFNSAPSTTRWYNYNWCGYEDGQLANCSSRAPAKPFSPRDNFGNSVNLPSSFRNNRDTYYYLSRVGWAMLLISLFFIVLALVPGFLATFLPFKAVPVLYCVLSWLAFFFIILAACLYTGCYVKARKTFRNSGRSARLGPKNFAFIWTSVFLMLVNAIWSTIFSATHKAHSTYSDHDMYAQYESPSVDTGAQMEKSTYNSGATDGAGPITAAPVVGQPQPTTTTTPAGNGKFFQKLKTRKQVPSAELEPAGDGGLAGPVTVRDVRPLNCIVAVSQNMGIGKNGDLPWPPLRNEFKYFQRMTTTSSVEGKQNLVIMGRKTWFSIPEKNRPLKDRINIVLSRELKEPPRGAHFLAKSLDDALRLIEQPEL

- fitness in 50 µM FK506 against the benign environment (PPiSeq, MTX(+)) [3]: ~10 fold
B3: Hom3-F[1,2] (other, UniProt P10869 1-527, looked up, not shown: small tags and cut ends)
chain: MPMDFQPTSSHSNWVVQKFGGTSVGKFPVQIVDDIVKHYSKPDGPNNNVAVVCSARSSYTKAEGTTSRLLKCCDLASQESEFQDIIEVIRQDHIDNADRFILNPALQAKLVDDTNKELELVKKYLNASKVLGEVSSRTVDLVMSCGEKLSCLFMTALCNDRGCKAKYVDLSHIVPSDFSASALDNSFYTFLVQALKEKLAPFVSAKERIVPVFTGFFGLVPTGLLNGVGRGYTDLCAALIAVAVNADELQVWKEVDGIFTADPRKVPEARLLDSVTPEEASELTYYGSEVIHPFTMEQVIRAKIPIRIKNVQNPLGNGTIIYPDNVAKKGESTPPHPPENLSSSFYEKRKRGATAITTKNDIFVINIHSNKKTLSHGFLAQIFTILDKYKLVVDLISTSEVHVSMALPIPDADSLKSLRQAEEKLRILGSVDITKKLSIVSLVGKHMKQYIGIAGTMFTTLAEEGINIEMISQGANEINISCVINESDSIKALQCIHAKLLSERTNTSNQFEHAIDERLEQLKRLGIVRPLNCIVAVSQNMGIGKNGDLPWPPLRNEFKYFQRMTTTSSVEGKQNLVIMGRKTWFSIPEKNRPLKDRINIVLSRELKEPPRGAHFLAKSLDDALRLIEQPEL

- binding result [4]: binds
B4: Ftr1 split Renilla luciferase (Rluc) PCA fusion (other, S. cerevisiae, UniProt P40088 1-404, looked up)
chain: MPNKVFNVAVFFVVFRECLEAVIVISVLLSFLKQAIGEHDRALYRKLRIQVWVGVLLGFIICLAIGAGFIGAYYSLQKDIFGSAEDLWEGIFCMIATIMISMMGIPMLRMNKMQSKWRVKIARSLVEIPHRKRDYFKIGFLSRRYAMFLLPFITVLREGLEAVVFVAGAGITTQGSHASAYPLPVVVGLICGGLVGYLLYYGASKSSLQIFLILSTSILYLISAGLFSRGAWYFENYRFNLASGGDASEGGDGNGSYNIRKAVYHVNCCNPELDNGWDIFNALLGWQNTGYLSSMLCYNIYWLVLIIVLSLMIFEERRGHLPFTKNLQLKHLNPGYWIKNKKKQELTEEQKRQLFAKMENINFNEDGEINVQENYELPEQTTSHSSSQNVATDKEVLHVKADSL
notes: whole, on cells; DHFR fragment of the Ftr1-F[1,2] strain replaced by an Rluc PCA fragment by homologous recombination; also called Ftr1 (Rluc PCA strain); not shown: linker of the pAG25/pAG32-linker-Rluc cassettes; Renilla luciferase PCA fragment; DHFR F[1,2] strains are said to receive Rluc F[2], but the next sentences call baits Rl

- fitness (PPiSeq, MTX(+), benign environment) [5]: 0.08
B5: Tpo1-F[1,2] (other, UniProt Q07824 1-586, looked up, not shown: small tags and cut ends)
chain: MSDHSPISNKENHLLPSDSSRSSSSDMHSTGTTGTTGVEPVDFTGEGAKYTTATEGNGGADLAIQRTTTMNSAAESEVNITRRLTKILTGSVNEPDRVEVDYTNCAPMGGDRPYPPSLPSRDLYEVTFDGPNDPLHPFNWPMKKKVLLCLVLCLDSIAIAMCSSIFASAVPQICEIYHVIEVVAILGITLFVLGFAASPVIYAPLSELYGRKGVLVLSAFGFALFQFAVATAENLQTIFICRFFGGFIGAAPMAVVPAAFADMFDTNVRGKAIALFSLGVFVGPILSPVMGSYIAQRTTWRWLEYVVGCFASAVFVAIVLFFEETHHPTILVNKAKQMRKQSNNWGIHAAHEDVELSIKDIVQKTVTRPIIMLFVEPLLLFVTIYNSFVYGILYLLLEAYPLVFVEGYGFTENGELPYIALIIGMMVCAAFIWYMDNDYLKRCRAKGKLVPEARLYAMVIAGTVFPIGILWFCWTGYYPHKIHWMVPTVGGAFIGFGLMGIFLPCLNYIIESYLLLAASAVAANTFMRSAFGACFPLFAGYMFRGMGIGWAGLLLGLFAAAMIPVPLLFLKYGESIRKKSKYAYAAVRPLNCIVAVSQNMGIGKNGDLPWPPLRNEFKYFQRMTTTSSVEGKQNLVIMGRKTWFSIPEKNRPLKDRINIVLSRELKEPPRGAHFLAKSLDDALRLIEQPEL

- fitness (PPiSeq, MTX(+), benign environment, relative to control strain lacking mDHFR fragments) [2]: 0.1
B6: Ftr1-F[1,2] (other, UniProt P40088 1-404, looked up, not shown: small tags and cut ends)
chain: MPNKVFNVAVFFVVFRECLEAVIVISVLLSFLKQAIGEHDRALYRKLRIQVWVGVLLGFIICLAIGAGFIGAYYSLQKDIFGSAEDLWEGIFCMIATIMISMMGIPMLRMNKMQSKWRVKIARSLVEIPHRKRDYFKIGFLSRRYAMFLLPFITVLREGLEAVVFVAGAGITTQGSHASAYPLPVVVGLICGGLVGYLLYYGASKSSLQIFLILSTSILYLISAGLFSRGAWYFENYRFNLASGGDASEGGDGNGSYNIRKAVYHVNCCNPELDNGWDIFNALLGWQNTGYLSSMLCYNIYWLVLIIVLSLMIFEERRGHLPFTKNLQLKHLNPGYWIKNKKKQELTEEQKRQLFAKMENINFNEDGEINVQENYELPEQTTSHSSSQNVATDKEVLHVKADSLVRPLNCIVAVSQNMGIGKNGDLPWPPLRNEFKYFQRMTTTSSVEGKQNLVIMGRKTWFSIPEKNRPLKDRINIVLSRELKEPPRGAHFLAKSLDDALRLIEQPEL

— patent publication US20180298377A1 (RESEARCH FOUNDATION FOR THE STATE UNIVERSITY OF NEW YORK, published 2018)
